Laboratory results reported in US20150306058A1, “COMPOSITION COMPRISING A SINGLE VARIABLE DOMAIN AND CAMOSTAT MESYLATE (CM)” (Glaxo Group Limited, priority 2012, published 2015).

Experiments:
[1] = Recovery of DOM101 from gut tissue and plasma after intra-duodenal administration, TNFR1-specific MSD assay; format: in vivo, Han Wistar rats
Experimental: Han Wistar rats were dosed with 1 mg DOM101 in the presence or absence of 100 mg CM, to determine if CM preserved the dAb™ in the gastrointestinal tract. Rats were briefly anaesthetised by isoflurane anaesthetic and a midline abdominal incision made to facilitate location of the duodenum for direct intra-duodenal injection (500 μl) of the dose formulations. Following dosing, the abdominal incisions were closed and the rats allowed to recover prior to their return to study cages. Direct dosing into the duodenum bypassed the acidic conditions of the gastric juices in the stomach and allowed for direct analysis of pharmacokinetics in the intestinal tract.
Animals were culled at the following time-points: 0.5, 1.5, 3, 5, 7 and 18 hours (three animals per group).
Blood samples were taken and the intestinal tract dissected out and divided into its constituent parts: duodenum (×2), jejunum (×6), ileum, caecum, colon (×2), rectum.
(§1) Intestinal samples were homogenised using the GentleMACS™ Dissociator in lysis buffer containing detergent and protease inhibitors. Samples were screened for DOM101 using a TNFR1-specific MSD™ assay. In brief, MSD plates were coated with TNFR1-Fc. Plates were washed and blocked with bovine serum albumin. Tissue samples were diluted and added to the plate, along with a standard curve of dAb™, then incubated at room temperature to allow binding. Plates were washed and a sulfo-tag-conjugated anti-Vh antibody was added to the wells. After incubation, the plate was washed and incubated with MSD read buffer. The resulting electrochemiluminescence signal was read on a Sector Imager 6000.
Results are expressed as nanograms per gram of tissue in FIG. 6.

[2] = Recovery of DOM101 from the large intestine after intra-colonic administration; format: in vivo, Han Wistar rats; conditions: 1 mg DOM101 intra-colonic
Experimental: as §1
Han Wistar rats were dosed with 1 mg DOM101 in the presence or absence of CM, to determine if camostat mesylate also preserved the dAb™ in the large intestinal tract. In brief, rats were anaesthetised by isoflurane anaesthetic, a midline abdominal incision made to facilitate location of the colon and 500 ul dose of the dose formulations injected directly into the colon. Following dosing, the abdominal incisions were loosely closed and the rats maintained under isoflurane anaesthesia and monitored for the duration of the experiment. […]
Samples were homogenised and screened as stated in Example 4. Results are expressed as nanograms per gram of tissue in FIG. 7.

[3] = Transition midpoint (Tm) of dAbs, thermal stability (DSC); format: physicochemical
Experimental: “Transition midpoint” or “Tm” is the temperature where 50% of the single variable domain is in its native conformation and the other 50% is denatured. In an embodiment, the single variable domain has a high Tm. In particular the Tm is greater than or equal to about 66° C. The thermal stability of a single variable domain, including the Tm, may be determined using Differential Scanning calorimetry (DSC).
For these Examples, high Tm dAb™ refers to a dAb™ with a Tm of 66° C., and low Tm dAb™ refers to a dAb™ with a Tm of 56° C.

[4] = 1 mg DOM101 intra-duodenal, absence of CM

B1: DOM101: TNFR1 specific dAb, SEQ ID NO: 6 (protein)
VHH: EVQLLESGGGLVQPGGSLRLSCAASGFTFAHETMVWVRQAPGKGLEWVSHIPPDGQDPFYADSVKGRFTISRDNSKNTLYLQMNSLRAEDTAVYHCALLPKRGPWFDYWGQGTLVTVSS
modifications: Amino acid sequence identified using molecular biology techniques.
- amount of dAb detectable in the ileum (in words) [1, 4]: small amounts
- time at which dAb was detectable in the duodenum [1, 4]: 0.5 h
- time up to which dAb was detectable in the jejunum [1, 4]: up to 1.5 h
- time after dosing at which dAb was detectable throughout the GI tract ([1]; 1 mg DOM101 intra-duodenal, presence of 100 mg CM): 7 h
- level in plasma ([1]; after intra-duodenal dosing, data not shown): less than 0.1 % of the total dose
- dAb levels at 3 h in the absence of CM compared with the two CM groups (in words) ([2]; absence of CM, particularly caecum and rectum): substantially reduced
- dAb levels in caecum, colon and rectum at 0.5 h (in words) ([2]; presence or absence of CM, rectum except 10 mg camostat group): High levels

B2: DOM3: domain antibody (single variable domain), Vh framework, SEQ ID NO: 3 (protein)
VHH: EVQLLESGGGLVQPGGSLRLSCAASGFTFAHETMVWVRQAPGKGLEWVSHIPPDGQDPFYADSVKGRFTISRDNSKNTLYLQMNSLRAEDTAVYHCALLPKRGPWFDYWGQGTLVTVSS
modifications: Amino acid sequence identified using molecular biology techniques.
- Tm (° C.) [3]: 65 °C

B3: DOM6: domain antibody (single variable domain), Vh framework, SEQ ID NO: 4 (protein)
VHH: EVQLLESGGGLVQPGGSLRLSCAASGFTFSEGTMWWVRQAPGKGLEWVSAILAAGSNTYYADSVKGRFTISRDNSKNTLYLQMNSLRAEDTAVYYCAKKRQERDGFDYWGQGTLVTVSS
modifications: Amino acid sequence identified using molecular biology techniques.
- Tm (° C.) [3]: 55.8 °C

B4: DOM2: domain antibody (single variable domain), Vh framework, SEQ ID NO: 2 (protein)
VHH: EVQLLESGGGLVQPGGSLRLSCAASGFTFRNFGMGWVRQAPGKGLEWVSWIISSGTETYYADSVKGRFTISRDNSKNTLYLQMNSLRAEDTAVYYCAKSLGRFDYWGQGTLVTVSS
modifications: Amino acid sequence identified using molecular biology techniques.
- Tm (° C.) [3]: 55.9 °C

B5: DOM7: domain antibody (single variable domain), Vh framework, SEQ ID NO: 5 (protein)
VHH: EVQLLESGGGLVQPGGSLRLSCAASGSTFTDDRMWWVRQAPGKGLEWVSAIQPDGHTTYYADSVKGRFTISRDNSKNTLYLQMNSLRAEDTAVYYCAEQDVKGSSSFDYWGQGTLVTVSS
modifications: Amino acid sequence identified using molecular biology techniques.
- Tm (° C.) [3]: 50.6 °C

B6: DOM1: domain antibody (single variable domain), Vκ framework, SEQ ID NO: 1 (antibody, V domains shown)
VL: DIQMTQSPSSLSASVGDRVTITCRASQDIYLNLDWYQQKPGKAPKLLINFGSELQSGVPSRFSGSGYGTDFTLTISSLQPEDFATYYCQPSFYFPYTFGQGTKVEIKR
modifications: Amino acid sequence identified using molecular biology techniques.
- Tm (° C.) [3]: 55 °C
